The values below come from publication doi:10.1101/2025.09.16.676546.

The target of the experiment is E.amu APN ectodomain, His-tagged (for cryo-EM) (Erinaceus amurensis). As to the kind of experiment: cryo-EM structure.

For “EriCoV RU15-1 RBD, His-tagged (for cryo-EM, BLI and SPR) (domain or fragment)”, the share of the total particles that are the complex was found to be 5%.
